The results in this text go back to US20110123534A1 (ERASMUS UNIVERSITY MEDICAL CENTER ROTTERDAM, published 2011).

The test deals with Rac1 (endogenous in HUVEC lysate) (human, UniProt P63000 1-189). Description: co-immunoprecipitation with anti-FGD5 antibody from lysates of FGD5 overexpressing HUVECs, western blot. How it is done:
GTP-RhoA, Rac1, and cdc42 activation levels were measured using the G-lisa detection system (Tebu-Bio, The Netherlands). For FGD5-protein complex co-immunoprecipitation, magnetic beads (Dynabeads, Invitrogen, The Netherlands) were coated and cross-linked with 2.5 μg anti-FGD5 antibody (Bioscience, The Netherlands) before immunoprecipitation overnight at 4° C. with protein cell lysates of transfected HUVECs (50 μg total protein of a volume of 100 μl incubation buffer). Beads were washed and the protein samples were eluted with eluation buffer (Invitrogen, The Netherlands) before analysis by western blot.
(In western blotting, separated proteins are transferred to a membrane and probed.)

B1: FYVE, RhoGEF and PH domain-containing 5 (FGD5), human, overexpressed in HUVECs by adenovirus (Ad-FGD5) (other)
chain: MFRGPKPPIAPKPRLTAPNEWRASVYLNDSLNKCSNGRLPCVDRGLDEGPRSIPKCSESETDEDYIVVPRVPLREDEPKDEGSVGNKALVSPESSAEEEEEREEGGEACGLEGTGAGEDSVAPAAPGAGALSREGEEGTDLALEDEGEGCADEPGTLEQVSRSEEEEKLVQPHRECSLEDSGPWAGEGVFQSDLLLPHIHGEDQEPPDTPGEAEEDDEEGCASTDPAGADEGSGPDRPTEDMGQDAEDTSEEPPEKEELAGVQEAETATDCPEVLEEGCEEATGVTGGEQVDLSEPPDHEKKTNQEVAAATLEDHAQDESAEESCQIVPFENDCMEDFVTSLTGSPYEFFPTESTSFCSESCSPLSESAKGLESEQAPKLGLRAEENPMVGALCGQCGSLQGGAAEGPAAPDVVVVLEEEALDDALANPYVMGVGLPGQAAPGEGGQAASDALGGYGSKEELNCEAEGGLVPADRKNTSTRVRPHSGKVAGYVPETVPEETGPEAGSSAPGIGGAAEEVGKTLLSLEGKPLEASRALPAKPRAFTLYPRSFSVEGREIPVSVYQEPEGSGLDDHRIKRKEDNLSLSCVIGSSGSFSQRNHLPSSGTSTPSSMVDIPPPFDLACITKKPITKSSPSLLIESDSPDKYKKKKSSFKRFLALTFKKKTENKLHVDVNVSSSRSSSESSYHGPSRILEVDRRSLSNSPQLKSRTGKLRASESPSSLIFYRDGKRKGVPFSRTVSRVESFEDRSRPPFLPLPLTKPRSISFPSADTSDYENIPAMNSDYENIQIPPRRPARAGAFTKLFEDQSRALSTANENDGYVDMSSFNAFESKQQSADQDAESAYTEPYKVCPISSAAPKEDLTSDEEQRSSEEEDSASRDPSVTHKVEGQSRALVIAQELLSSEKAYVEMLQHLNLDFHGAVMRALDDMDHEGRDTLAREELRQGLSELPAIHDLHQGILEELEERLSNWESQQKVADVFLAREQGFDHHATHILQFDRYLGLLSENCLHSPRLAAAVREFEQSVQGGSQTAKHRLLRVVQRLFQYQVLLTDYLNNLCPDSAEYDNTQGALSLISKVTDRANDSMEQGENLQKLVHIEHSVRGQGDLLQPGREFLKEGTLMKVTGKNRRPRHLFLMNDVLLYTYPQKDGKYRLKNTLAVANMKVSRPVMEKVPYALKIETSESCLMLSASSCAERDEWYGCLSRALPEDYKAQALAAFHHSVEIRERLGVSLGERPPTLVPVTHVMMCMNCGCDFSLTLRRHHCHACGKIVCRNCSRNKYPLKYLKDRMAKVCDGCFGELKKRGRAVPGLMRERPVSMSFPLSSPRFSGSAFSSVFQSINPSTFKKQKKVPSALTEVAASGEGSAISGYLSRCKRGKRHWKKLWFVIKGKVLYTYMASEDKVALESMPLLGFTIAPEKEEGSSEVGPIFHLYHKKTLFYSFKAEDTNSAQRWIEAMEDASVL
notes: Guanine-nucleotide exchange factor; Made with the pAd/CMV/V5 gateway system; also called Ad-FGD5 transgene product
Turning to B1, the binding result is reported as “no binding”.
